This note sets out measurements from US20240173398A1 (MAX PLANCK GESELLSCHAFT ZUR F RDERUNG DER WISSENSCHAFTEN E V, published 2024).

The test addresses SARS-CoV-2 S1 334-526 N343D (SARS-CoV-2, UniProt P0DTC2 334-526). Description: co-secretion from Pichia pastoris; biochemical and structural analysis.

B1: VHH antibody Re21D01 (VHH)
VHH: QVQLVESGGALVQPGGSLRLSCVASGFTFSSFAMGWYRQAPGKECEWVATITITGGSTNYADSVKGRFTISRDNAKNTVYLQMNSLKPEDTAVYYCNPDPGCRRGQGTQVTVSS
Regarding B1, the binding result is “binds”.
